“Also recorded” adds a separate entry of the source. Square brackets hold non-standard residues; d marks the D form. Ends that are not written are not given here. fluorescein = N-terminal fluorescein label; pS = N[C@@H](COP(=O)(O)O)C(=O)O
T1: human 14-3-3 isoform σ (Homo sapiens, UniProt P31947)
T1 construct: MBP (cleaved yes); made in house; host or cells: E. coli BL21DE3
T1 sequence (P31947 1-248): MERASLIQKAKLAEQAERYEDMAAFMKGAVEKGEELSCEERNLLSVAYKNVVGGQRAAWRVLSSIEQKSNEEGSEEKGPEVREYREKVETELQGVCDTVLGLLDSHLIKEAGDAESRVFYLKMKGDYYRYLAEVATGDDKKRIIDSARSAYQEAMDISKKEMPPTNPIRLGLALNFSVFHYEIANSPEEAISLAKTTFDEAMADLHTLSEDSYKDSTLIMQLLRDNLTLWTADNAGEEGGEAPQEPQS

T2: human 14-3-3 isoform ϵ (Homo sapiens, UniProt P62258)
T2 construct: MBP (cleaved yes); made in house; host or cells: E. coli BL21DE3
T2 sequence (P62258 1-255): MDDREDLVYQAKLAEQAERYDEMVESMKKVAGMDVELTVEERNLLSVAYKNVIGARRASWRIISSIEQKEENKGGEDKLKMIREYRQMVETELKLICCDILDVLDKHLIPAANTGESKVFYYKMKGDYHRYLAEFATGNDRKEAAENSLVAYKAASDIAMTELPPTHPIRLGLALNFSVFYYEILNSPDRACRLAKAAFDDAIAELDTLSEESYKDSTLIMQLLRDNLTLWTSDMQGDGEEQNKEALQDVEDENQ

T3: human 14-3-3γ (Homo sapiens, UniProt P61981)
T3 construct: MBP (cleaved yes); made in house; host or cells: E. coli BL21DE3
T3 sequence (P61981 1-247): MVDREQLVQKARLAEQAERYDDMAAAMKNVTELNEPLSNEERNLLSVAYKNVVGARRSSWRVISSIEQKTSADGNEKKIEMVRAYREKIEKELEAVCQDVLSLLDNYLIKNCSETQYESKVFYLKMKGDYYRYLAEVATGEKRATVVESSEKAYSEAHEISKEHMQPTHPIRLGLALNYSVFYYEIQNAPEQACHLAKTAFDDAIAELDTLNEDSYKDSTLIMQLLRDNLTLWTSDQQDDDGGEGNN

T4: human 14-3-3 isoform β (recombinant, MBP tag removed) (human, UniProt P31946 1-246)
T4 construct: 14-3-3 beta, human; Expressed from pMAL2CX plasmids; also called 14-3-3β; source: E. coli BL21DE3, purified (maltose-agarose, Factor Xa, anion exchange)
T4 sequence (looked up): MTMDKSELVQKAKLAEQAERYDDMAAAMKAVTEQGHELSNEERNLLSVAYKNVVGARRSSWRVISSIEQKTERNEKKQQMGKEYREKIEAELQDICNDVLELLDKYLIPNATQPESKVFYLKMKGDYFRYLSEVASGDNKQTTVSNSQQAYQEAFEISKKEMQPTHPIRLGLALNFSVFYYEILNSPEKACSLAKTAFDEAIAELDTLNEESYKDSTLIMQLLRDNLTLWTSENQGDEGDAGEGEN

T5: human 14-3-3 isoform ε (recombinant, MBP tag removed) (human, UniProt P62258 1-255)
T5 construct: 14-3-3 epsilon, human; Expressed from pMAL2CX plasmids; also called 14-3-3ε; source: E. coli BL21DE3, purified (maltose-agarose, Factor Xa, anion exchange)
T5 sequence (looked up): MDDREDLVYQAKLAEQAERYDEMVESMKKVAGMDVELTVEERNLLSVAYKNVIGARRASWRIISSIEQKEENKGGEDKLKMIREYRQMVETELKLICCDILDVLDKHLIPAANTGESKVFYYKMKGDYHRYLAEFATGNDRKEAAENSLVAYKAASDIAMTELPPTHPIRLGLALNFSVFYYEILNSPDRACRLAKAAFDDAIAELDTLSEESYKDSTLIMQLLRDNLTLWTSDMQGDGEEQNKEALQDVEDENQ

T6: human 14-3-3 isoform ζ (recombinant, MBP tag removed) (human, UniProt P63104 1-245)
T6 construct: 14-3-3 zeta, human; Expressed from pMAL2CX plasmids; also called 14-3-3ζ; source: E. coli BL21DE3, purified (maltose-agarose, Factor Xa, anion exchange)
T6 sequence (looked up): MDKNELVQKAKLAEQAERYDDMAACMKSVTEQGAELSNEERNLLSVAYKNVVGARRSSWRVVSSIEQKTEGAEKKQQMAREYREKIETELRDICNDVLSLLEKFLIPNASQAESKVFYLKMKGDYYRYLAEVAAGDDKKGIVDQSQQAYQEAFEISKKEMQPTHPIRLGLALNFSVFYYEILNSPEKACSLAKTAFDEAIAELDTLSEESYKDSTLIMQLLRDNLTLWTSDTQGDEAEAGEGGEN

T7: human 14-3-3 isoform η (recombinant, MBP tag removed) (human, UniProt Q04917 1-246)
T7 construct: 14-3-3 eta, human; Expressed from pMAL2CX plasmids; also called 14-3-3η; source: E. coli BL21DE3, purified (maltose-agarose, Factor Xa, anion exchange)
T7 sequence (looked up): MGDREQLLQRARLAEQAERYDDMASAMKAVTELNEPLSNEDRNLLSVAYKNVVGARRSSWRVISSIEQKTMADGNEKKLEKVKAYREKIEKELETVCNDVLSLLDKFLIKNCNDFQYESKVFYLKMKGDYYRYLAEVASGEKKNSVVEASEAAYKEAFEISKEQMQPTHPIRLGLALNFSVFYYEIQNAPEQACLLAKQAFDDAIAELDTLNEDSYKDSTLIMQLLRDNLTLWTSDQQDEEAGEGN

T8: human 14-3-3 isoform θ (recombinant, MBP tag removed) (human, UniProt P27348 1-245)
T8 construct: 14-3-3 theta, human; Expressed from pMAL2CX plasmids; also called 14-3-3θ; source: E. coli BL21DE3, purified (maltose-agarose, Factor Xa, anion exchange)
T8 sequence (looked up): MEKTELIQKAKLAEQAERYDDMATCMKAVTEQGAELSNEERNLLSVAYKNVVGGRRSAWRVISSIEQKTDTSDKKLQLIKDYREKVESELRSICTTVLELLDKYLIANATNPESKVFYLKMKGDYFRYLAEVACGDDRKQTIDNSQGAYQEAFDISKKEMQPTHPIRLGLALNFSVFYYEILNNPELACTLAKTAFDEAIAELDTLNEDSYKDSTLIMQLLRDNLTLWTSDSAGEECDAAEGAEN

T9: human 14-3-3 isoform σ (recombinant, MBP tag removed) (human, UniProt P31947 1-248)
T9 construct: 14-3-3 sigma, human; Expressed from pMAL2CX plasmids; also called 14-3-3σ; source: E. coli BL21DE3, purified (maltose-agarose, Factor Xa, anion exchange)
T9 sequence (looked up): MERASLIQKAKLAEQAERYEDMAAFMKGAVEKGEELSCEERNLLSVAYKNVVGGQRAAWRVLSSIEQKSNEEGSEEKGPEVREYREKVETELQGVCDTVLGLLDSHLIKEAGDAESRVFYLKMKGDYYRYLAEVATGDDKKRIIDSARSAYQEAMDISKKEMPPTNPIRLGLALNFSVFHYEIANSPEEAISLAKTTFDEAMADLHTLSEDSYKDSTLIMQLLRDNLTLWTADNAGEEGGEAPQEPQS


How the values were obtained:
human 14-3-3 isoform η = molecular target: T10, human 14-3-3 isoform η (Homo sapiens, UniProt Q04917); assay: Fluorescence polarization (FP) direct binding assay; conditions: fluorescein-labeled peptide 1 nM
T10 construct: MBP (cleaved yes); made in house; host or cells: E. coli BL21DE3
Description: (§1) Human MBP-tagged 14-3-3 isoforms were expressed from pMAL2CX plasmids [[Kilisch et al. (2016)], [Yuan et al. (2003)]] in E. coli BL21DE3 cells. After induction with […] isopropyl-β-D-thiogalactoside, the protein was expressed for 4 h at room temperature. Cells were lysed in MBP-lysis buffer [50 mM Tris–HCl pH 7.5, 150 mM NaCl, 5 mM MgCl2, 1 mM PMSF, 1× cOmplete Protease Inhibitor EDTA-free (Roche)] using a French Pressure cell (FRENCH Press, Thermo, United States). Following centrifugation at 42,000 × g and 4°C for 30 min, the supernatant was transferred to a Maltose-agarose column (1.5 ml bed volume; New England Biolabs GmbH, Germany). Captured proteins were washed six times with 10 ml wash buffer (50 mM Tris–HCl pH 7.5, 150 mM NaCl, 5 mM MgCl2) prior to elution using wash buffer including 15 mM D-maltose. To remove the MBP tag, fusion proteins were incubated with Factor Xa (New England Biolabs GmbH, Germany), at a final concentration of 0.4 μg per 1 mg fusion protein for 24 h at RT following another 72 h at 4°C. Anion exchange chromatography was finally applied to separate residual MBP using a buffer gradient from 20 mM Tris pH 8 to 20 mM Tris pH 8 with 1 M NaCl. For this a RESOURCE Q column (GE Healthcare, United Kingdom) was utilized, employing an ÄKTApurifier (GE Healthcare, United Kingdom) or an NGC Quest Chromatography System (Bio-Rad Laboratories GmbH, Germany).
(§2) FP was used to determine binding affinities of different phosphorylated and non-phosphorylated peptides derived from LRRK2 sequences (Peps4LS GmbH, Germany) toward human 14-3-3 isoforms. Direct binding assays were performed and evaluated as previously described ([Muda et al., 2014]; [Manschwetus et al., 2019]). Briefly, both dilution series of 14-3-3 isoforms ranging from final concentrations of at least 5 μM down to picomolar concentrations and dilutions of the respective fluorescein-labeled peptide (final conc. 1 nM) were prepared in FP buffer (20 mM MOPS pH 7, 150 mM NaCl, 0.005% CHAPS). Subsequently, samples were mixed in 384-well microtiter plates as duplicates (BRAND plates, pureGrade, black, BRAND GmbH & Co. KG, Germany) in a 1:1 ratio and measured using a CLARIOstar plate reader (BMG LABTECH, Germany). Two protein preparations were utilized for at least two independent replications for all measurements while high affinity binding peptides were particularly measured with a minimum of three independent replications for statistical evaluation. Data was analyzed with GraphPad Prism 6.0 (GraphPad Software, San Diego, CA, United States) by plotting obtained FP signals (mPol) against the logarithmic 14-3-3 protein concentrations. Data points represent means ± standard error of mean (SEM) of duplicates. “Ctrl.” indicates the FP signal of fluorescein-labeled peptides without 14-3-3 protein. Sigmoidal dose-response fitting was performed to define KD-values.

human 14-3-3 isoform θ = molecular target: T11, human 14-3-3 isoform θ (Homo sapiens, UniProt P27348); assay: as above; conditions: fluorescein-labeled peptide 1 nM
T11 construct: MBP (cleaved yes); made in house; host or cells: E. coli BL21DE3
Description: as §1, §2

human 14-3-3 isoform σ = molecular target: T1, human 14-3-3 isoform σ; assay: as above; conditions: fluorescein-labeled peptide 1 nM
Description: as §1, §2

human 14-3-3 isoform ϵ = molecular target: T2, human 14-3-3 isoform ϵ; assay: as above; conditions: fluorescein-labeled peptide 1 nM
Description: as §1, §2

human 14-3-3γ = molecular target: T3, human 14-3-3γ; assay: as above; conditions: dilution series of 14-3-3γ (at least 5 μM down to pM), fluorescein-labeled peptide 1 nM, FP buffer pH 7
Description: as §1, §2

[1] = test system: all seven human 14-3-3 isoforms; assay: Fluorescence polarization (FP) direct binding assay, statements over all isoforms; conditions: FP direct binding; all seven isoforms; fluorescein-labeled peptide 1 nM; FP buffer pH 7
Description: as §1, §2

[2] = molecular target: T4, human 14-3-3 isoform β (recombinant, …); assay: fluorescence polarisation; direct binding; dilution series of 14-3-3 isoform (at least 5 μM down to picomolar) mixed with 1 nM fluorescein-labelled peptide; 20 mM MOPS pH 7, 150 mM NaCl, 0.005% CHAPS; 384-well plates; conditions: both partners purified
[3] = molecular target: T5, human 14-3-3 isoform ε (recombinant, …); assay: as above; conditions: both partners purified
[4] = molecular target: T6, human 14-3-3 isoform ζ (recombinant, …); assay: as above; conditions: both partners purified
[5] = molecular target: T7, human 14-3-3 isoform η (recombinant, …); assay: as above; conditions: both partners purified
[6] = molecular target: T8, human 14-3-3 isoform θ (recombinant, …); assay: as above; conditions: both partners purified
[7] = molecular target: T9, human 14-3-3 isoform σ (recombinant, …); assay: as above; conditions: both partners purified

| Molecule | Binding to 14-3-3 isoform η, in words (human 14-3-3 isoform η) | Binding to 14-3-3 isoform θ, in words (human 14-3-3 isoform θ) | Binding to 14-3-3 isoform σ, in words (human 14-3-3 isoform σ) | Binding to 14-3-3 isoform ϵ, in words (human 14-3-3 isoform ϵ) | Binding to 14-3-3γ, in words (human 14-3-3γ) | Binding to the human 14-3-3 isoforms, in words [1] | Kd [2] | Kd [3] | Kd [4] | Kd [5] | Kd [6] | Kd [7] |
| --- | --- | --- | --- | --- | --- | --- | --- | --- | --- | --- | --- | --- |
| SFLVKKKSNpSISVGEFYRD [pS910, fluorescein-labeled LRRK2-derived phosphopeptide covering pS910] | highest affinities, yet in a micromolar range | weakest binding | No binding | No binding | micromolar binding affinity; also recorded: highest affinities, yet in a micromolar range | micromolar affinities for the 14-3-3 isoforms except σ and ϵ; also recorded: low affinity |  |  |  |  |  |  |
| fluorescein-KKSN[pS]ISVGEFYRDAVLQRCSPNLQRHSN[pS]LGPIF (LRRK2-derived 35-mer covering S910 and S935, phosphorylated at both; source: synthetic peptide (Peps4LS GmbH)) [pS910/pS935] |  |  |  |  |  |  | 21.1 nM | 12.4 nM | 4.8 nM | 4.8 nM | 9.5 nM | 60.6 nM |
| fluorescein-RCSPNLRRHSN[pS]LGPIFDH (LRRK2-derived peptide with the possible pathogenic mutation Q930R, phosphorylated at S935; source: synthetic peptide (Peps4LS GmbH)) [Q930R/pS935] |  |  |  |  |  |  | 29.5 nM | 48.5 nM | 23.9 nM | 13.3 nM | 73.1 nM | 350 nM |
